From patent publication EP4582453A1 (Cichlid Inc., dated 2025)

T1: human CTLA-4 protein overexpressed in the HEK293 cell line (human, UniProt P16410 36-223)
T1 construct: whole, on cells; also called CTLA-4/HEK293 cell line; CTLA-4 expressing cell line
T1 sequence (looked up): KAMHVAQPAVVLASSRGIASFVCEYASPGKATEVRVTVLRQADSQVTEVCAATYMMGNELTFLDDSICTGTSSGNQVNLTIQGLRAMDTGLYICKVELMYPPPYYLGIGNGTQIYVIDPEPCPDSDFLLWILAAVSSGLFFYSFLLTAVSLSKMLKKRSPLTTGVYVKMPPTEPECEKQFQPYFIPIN


Target: T1, human CTLA-4 protein overexpressed in …
Assay: cell ELISA of HA-tagged scFv extract on CTLA-4-expressing HEK293 cells, anti-HA HRP

Binder	binding result
4B6 scFv (scFv, V domains shown, HA-tagged scFv) VH: EVQLLESGGGLVQPGGSLRLSCAASGFTFSGYSMSWVRQAPGKGLEWVSSISPSGGNTYYADSVKGRFTISRDNSKNTLYLQMNSLRAEDTAVYYCAKTSELFDYWGQGTLVTVSS VL: QSVLTQPPSASGTPGQRVTISCTGSSSNIGSNDVNWYQQLPGTAPKLLIYNDSHRPSGVPDRFSGSKSGTSASLAISGLRSEDEADYYCGTWDYSLSAYVFGGGTKLTV	binds
3E4 scFv (scFv, V domains shown, HA-tagged scFv from a synthetic human scFv phage library, tested as an E. coli extract; VH and VL form one chain in the scFv) VH: EVQLLESGGGLVQPGGSLRLSCAASGFTFSNYAMSWVRQAPGKGLEWVSVIYYDGSNKYYADSVKGRFTISRDNSKNTLYLQMNSLRAEDTAVYYCARNTYRFDYWGQGTLVTVSS VL: QSVLTQPPSASGTPGQRVTISCSGSSSNIGNNAVTWYQQLPGTAPKLLIYSDSNRPSGVPDRFSGSKSGTSASLAISGLRSEDEADYYCGSWDSSLSGYVFGGGTKLTVL	binds
